# PMC10397247
# Read-outs that look alike come from different tables or passages of the source.
# T1: 4H745-AA
# T1 chain: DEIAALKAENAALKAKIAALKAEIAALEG
# T2: 4H3631-AA
# T2 chain: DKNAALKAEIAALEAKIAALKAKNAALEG
# T3: 4H797-AA
# T3 chain: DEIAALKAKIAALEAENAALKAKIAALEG
# T4: 4H2274-AA
# T4 chain: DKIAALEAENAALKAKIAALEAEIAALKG
# T5: 4H3395-AA
# T5 chain: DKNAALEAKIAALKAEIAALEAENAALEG
# T6: 4H2698-AA
# T6 chain: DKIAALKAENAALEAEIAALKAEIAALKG
# T7: 4H3590-AA
# T7 chain: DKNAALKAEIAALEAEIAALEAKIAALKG
# T8: 4H485-AA
# T8 chain: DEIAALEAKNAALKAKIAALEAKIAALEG
# T9: 4H310-AA
# T9 chain: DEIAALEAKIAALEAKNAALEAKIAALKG
# T10: 4H850-AA
# T10 chain: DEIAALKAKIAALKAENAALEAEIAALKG
# T11: 4H930-AA
# T11 chain: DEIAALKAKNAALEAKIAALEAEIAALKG
# T12: 4H3120-AA
# T12 chain: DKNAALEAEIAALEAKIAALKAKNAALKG
# T13: 4H909-AA
# T13 chain: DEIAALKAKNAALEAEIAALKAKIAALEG
# T14: 4H2389-AA
# T14 chain: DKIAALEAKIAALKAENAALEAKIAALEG
# T15: 4H458-AA
# T15 chain: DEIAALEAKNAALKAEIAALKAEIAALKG
# T16: 4H2438-AA
# T16 chain: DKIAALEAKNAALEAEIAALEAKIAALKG
# T17: 4H710-AA
# T17 chain: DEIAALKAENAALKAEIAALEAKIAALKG
# T18: 4H891-AA
# T18 chain: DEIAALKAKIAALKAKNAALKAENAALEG
# T19: 4H3130-AA
# T19 chain: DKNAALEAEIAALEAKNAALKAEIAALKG
# T20: 4H2253-AA
# T20 chain: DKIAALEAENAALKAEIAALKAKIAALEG
# T21: 4H384-AA
# T21 chain: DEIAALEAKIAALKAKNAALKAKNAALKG
# T22: 4H3606-AA
# T22 chain: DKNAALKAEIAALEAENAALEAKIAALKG
# T23: 4H2330-AA
# T23 chain: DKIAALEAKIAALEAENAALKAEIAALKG
# T24: 4H3381-AA
# T24 chain: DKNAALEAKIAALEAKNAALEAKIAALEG
# T25: 4H570-AA
# T25 chain: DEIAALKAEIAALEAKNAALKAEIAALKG
# T26: 4H2611-AA
# T26 chain: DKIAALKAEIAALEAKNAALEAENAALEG
# T27: 4H3016-AA
# T27 chain: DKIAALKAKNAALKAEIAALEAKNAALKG
# T28: 4H2865-AA
# T28 chain: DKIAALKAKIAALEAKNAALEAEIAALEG
# T29: 4H982-AA
# T29 chain: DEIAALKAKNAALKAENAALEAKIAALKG
# T30: 4H3753-AA
# T30 chain: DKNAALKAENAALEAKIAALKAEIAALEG
# T31: 4H3165-AA
# T31 chain: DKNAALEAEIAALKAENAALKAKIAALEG
# T32: 4H2473-AA
# T32 chain: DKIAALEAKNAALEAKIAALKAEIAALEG
# T33: 4H3410-AA
# T33 chain: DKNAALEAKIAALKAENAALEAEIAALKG
# T34: 4H3718-AA
# T34 chain: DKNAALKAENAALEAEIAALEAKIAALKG
# T35: 4H94-AA
# T35 chain: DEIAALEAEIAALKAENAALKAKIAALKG
# T36: 4H697-AA
# T36 chain: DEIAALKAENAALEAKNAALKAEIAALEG
# T37: 4H629-AA
# T37 chain: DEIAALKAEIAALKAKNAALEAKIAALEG
# T38: 4H249-AA
# T38 chain: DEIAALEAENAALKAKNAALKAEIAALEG
# T39: 4H2774-AA
# T39 chain: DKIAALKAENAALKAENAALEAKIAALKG
# T40: 4H_APH
# T40 chain: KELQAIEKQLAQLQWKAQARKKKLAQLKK
# T41: 4H_BCR
# T41 chain: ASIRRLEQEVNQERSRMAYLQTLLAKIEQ
# Legend:
# Assay in all cases: two-hybrid library CCmax;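 further: natural log of median RNA to DNA barcode read ratio; higher means stronger binding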
# [1] = molecular target: T1, 4H745-AA; details: mean of both orientations
# [2] = molecular target: T2, 4H3631-AA
# [3] = molecular target: T3, 4H797-AA; details: mean of both orientations
# [4] = molecular target: T4, 4H2274-AA
# [5] = molecular target: T5, 4H3395-AA; details: mean of both orientations
# [6] = molecular target: T6, 4H2698-AA; details: mean of both orientations
# [7] = molecular target: T7, 4H3590-AA
# [8] = molecular target: T8, 4H485-AA; details: mean of both orientations
# [9] = molecular target: T9, 4H310-AA
# [10] = molecular target: T10, 4H850-AA; details: mean of both orientations
# [11] = molecular target: T11, 4H930-AA; details: mean of both orientations
# [12] = molecular target: T12, 4H3120-AA; details: mean of both orientations
# [13] = molecular target: T13, 4H909-AA; details: mean of both orientations
# [14] = molecular target: T14, 4H2389-AA; details: mean of both orientations
# [15] = molecular target: T15, 4H458-AA; details: mean of both orientations
# [16] = molecular target: T16, 4H2438-AA; details: mean of both orientations
# [17] = molecular target: T17, 4H710-AA; details: mean of both orientations
# [18] = molecular target: T18, 4H891-AA; details: mean of both orientations
# [19] = molecular target: T19, 4H3130-AA; details: mean of both orientations
# [20] = molecular target: T20, 4H2253-AA
# [21] = molecular target: T21, 4H384-AA; details: mean of both orientations
# [22] = molecular target: T22, 4H3606-AA; details: mean of both orientations
# [23] = molecular target: T23, 4H2330-AA; details: mean of both orientations
# [24] = molecular target: T24, 4H3381-AA; details: mean of both orientations
# [25] = molecular target: T25, 4H570-AA; details: mean of both orientations
# [26] = molecular target: T26, 4H2611-AA; details: mean of both orientations
# [27] = molecular target: T27, 4H3016-AA; details: mean of both orientations
# [28] = molecular target: T28, 4H2865-AA; details: mean of both orientations
# [29] = molecular target: T29, 4H982-AA; details: mean of both orientations
# [30] = molecular target: T30, 4H3753-AA; details: mean of both orientations
# [31] = molecular target: T31, 4H3165-AA; details: mean of both orientations
# [32] = molecular target: T32, 4H2473-AA; details: mean of both orientations
# [33] = molecular target: T33, 4H3410-AA; details: mean of both orientations
# [34] = molecular target: T34, 4H3718-AA; details: mean of both orientations
# [35] = molecular target: T35, 4H94-AA; details: mean of both orientations
# [36] = molecular target: T36, 4H697-AA; details: mean of both orientations
# [37] = molecular target: T37, 4H629-AA; details: mean of both orientations
# [38] = molecular target: T38, 4H249-AA; details: mean of both orientations
# [39] = molecular target: T39, 4H2774-AA; details: mean of both orientations
# [40] = molecular target: T40, 4H_APH
# [41] = molecular target: T41, 4H_BCR; details: mean of both orientations
# [42] = molecular target: 4H_GCN4
# Sequence of 4H_GCN4 (chain, as listed by the source): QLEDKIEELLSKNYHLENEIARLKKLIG
interaction score [1],interaction score [3],interaction score [5],interaction score [6],interaction score [8],interaction score [10],interaction score [11],interaction score [12],interaction score [13],interaction score [14],interaction score [15],interaction score [16],interaction score [17],interaction score [18],interaction score [19],interaction score [23],interaction score [24],interaction score [25],interaction score [27],interaction score [28],Binder,other results
-1.11,1.92,-0.984,-0.391,-1.08,1.87,-1.4,-1.24,-1.21,1.17,-1.3,-0.264,-0.684,-1.69,0.822,1.35,-1.23,0.408,0.425,1.76,DENAALEAKIAALEAENAALKAKIAALKG [4H1310-AA],interaction score ([2]; mean of both orientations): -1.57; interaction score ([4]; mean of both orientations): -1.15; interaction score ([7]; mean of both orientations): -0.24; interaction score ([9]; mean of both orientations): -0.748; interaction score ([20]; mean of both orientations): -0.556; interaction score [21]: -1.55; interaction score [22]: 2.23; interaction score [26]: -1.46; interaction score [29]: -1.4; interaction score [30]: -1.37; interaction score [31]: 0.0119; interaction score [32]: -1.02; interaction score [33]: 1.9; interaction score [34]: -1.04; interaction score [35]: -0.926; interaction score [36]: -1.05; interaction score [37]: -1.49
-1.25,-1.41,-1.69,-1.09,-1.46,1.29,-1.25,-1.91,-1.36,-1.4,-1.65,-1.65,-1.04,-1.64,-0.637,-1.37,-1.5,0.298,-1.84,-1.68,DENAALKAEIAALKAENAALKAEIAALKG [4H1626-AA],interaction score ([4]; mean of both orientations): -1.5; interaction score ([7]; mean of both orientations): -1.51; interaction score ([9]; mean of both orientations): -1.28; interaction score ([20]; mean of both orientations): -1.52; interaction score [38]: -1.39; interaction score [26]: -1.57; interaction score [30]: -1.54; interaction score [31]: -0.447; interaction score [32]: -1.45; interaction score [33]: -0.738; interaction score [39]: -1.46; interaction score [35]: 1.29; interaction score [37]: -1.63
-1.19,-1.29,-1.76,-1.05,-0.612,0.681,-1.1,-1.55,-1.05,-0.327,-1.34,-0.434,-1.52,-1.23,0.0677,-1.84,-0.986,-0.319,0.156,1.33,DENAALEAEIAALKAKNAALEAKIAALKG [4H1142-AA],interaction score [2]: -1.43; interaction score [4]: -1.11; interaction score ([7]; mean of both orientations): 0.23; interaction score [9]: -1.4; interaction score ([20]; mean of both orientations): -1.49; interaction score [21]: -1.72; interaction score [22]: 1.65; interaction score [26]: -0.194; interaction score [29]: -1.22; interaction score [30]: -2.1; interaction score [31]: -0.754; interaction score [32]: -2.06; interaction score [33]: 0.438; interaction score [34]: -1.33; interaction score [35]: -1.72; interaction score [36]: -1.71; interaction score [37]: 0.124
0.647,-1.07,-1.22,0.72,-0.48,-0.973,-1.04,-1.77,-0.788,-1.29,0.0604,-0.259,0.741,-1.7,-1.14,-1.14,-1.4,-1.41,-0.709,-1.42,DKIAALEAENAALKAEIAALKAKIAALEG [4H2253-AA],interaction score [40]: -1.1; interaction score ([4]; mean of both orientations): -0.65; interaction score [7]: -1.09; interaction score [41]: -1.47; interaction score [9]: -0.688; interaction score [20]: 2.28; interaction score [38]: -1.56; interaction score [42]: -1.12; interaction score [30]: -1.13; interaction score [31]: -1.44; interaction score [32]: -1.02; interaction score [33]: -0.76; interaction score [39]: -0.645; interaction score [35]: -1.54; interaction score [37]: -1.74
